Numbering of substitutions follows the chain as printed. Numbers in names are those of the source.
B1: V223K: tighter-binding PI3Kγ mutant used for co-crystallisation with Ras (protein, UniProt P48736 1-1102, looked up, variant V223K)
Phosphatidylinositol …: MELENYKQPVVLREDNCRRRRRMKPRSAAASLSSMELIPIEFVLPTSQRKCKSPETALLHVAGHGNVEQMKAQVWLRALETSVAADFYHRLGPHHFLLLYQKKGQWYEIYDKYQVVQTLDCLRYWKATHRSPGQIHLVQRHPPSEESQAFQRQLTALIGYDVTDVSNVHDDELEFTRRGLVTPRMAEVASRDPKLYAMHPWVTSKPLPEYLWKKIANNCIFIKIHRSTTSQTIKVSPDDTPGAILQSFFTKMAKKKSLMDIPESQSEQDFVLRVCGRDEYLVGETPIKNFQWVRHCLKNGEEIHVVLDTPPDPALDEVRKEEWPLVDDCTGVTGYHEQLTIHGKDHESVFTVSLWDCDRKFRVKIRGIDIPVLPRNTDLTVFVEANIQHGQQVLCQRRTSPKPFTEEVLWNVWLEFSIKIKDLPKGALLNLQIYCGKAPALSSKASAESPSSESKGKVQLLYYVNLLLIDHRFLLRRGEYVLHMWQISGKGEDQGSFNADKLTSATNPDKENSMSISILLDNYCHPIALPKHQPTPDPEGDRVRAEMPNQLRKQLEAIIATDPLNPLTAEDKELLWHFRYESLKHPKAYPKLFSSVKWGQQEIVAKTYQLLARREVWDQSALDVGLTMQLLDCNFSDENVRAIAVQKLESLEDDDVLHYLLQLVQAVKFEPYHDSALARFLLKRGLRNKRIGHFLFWFLRSEIAQSRHYQQRFAVILEAYLRGCGTAMLHDFTQQVQVIEMLQKVTLDIKSLSAEKYDVSSQVISQLKQKLENLQNSQLPESFRVPYDPGLKAGALAIEKCKVMASKKKPLWLEFKCADPTALSNETIGIIFKHGDDLRQDMLILQILRIMESIWETESLDLCLLPYGCISTGDKIGMIEIVKDATTIAKIQQSTVGNTGAFKDEVLNHWLKEKSPTEEKFQAAVERFVYSCAGYCVATFVLGIGDRHNDNIMITETGNLFHIDFGHILGNYKSFLGINKERVPFVLTPDFLFVMGTSGKKTSPHFQKFQDICVKAYLALRHHTNLLIILFSMMLMTGMPQLTSKEDIEYIRDALTVGKNEEDAKKYFLDQIEVCRDKGWTVQFNWFLHLVLGIKQGEKHSA
B2: T232D: PI3Kγ RBD mutant (protein, UniProt P48736 1-1102, looked up, variant T232D)
Phosphatidylinositol …: B1 Phosphatidylinositol … with K223V, T232D
B3: K234A: PI3Kγ mutant of a switch II contact residue (protein, UniProt P48736 1-1102, looked up, variant K234A)
Phosphatidylinositol …: B1 Phosphatidylinositol … with K223V, K234A
B4: K251A: PI3Kγ RBD mutant (protein, UniProt P48736 1-1102, looked up, variant K251A)
Phosphatidylinositol …: B1 Phosphatidylinositol … with K223V, K251A
B5: K255A: PI3Kγ RBD mutant (protein, UniProt P48736 1-1102, looked up, variant K255A)
Phosphatidylinositol …: B1 Phosphatidylinositol … with K223V, K255A

Target: T1, N-Ras.mant-GMPPNP (Homo sapiens, UniProt P01111)
T1 construct: fluorescence anisotropy of full length, unmodified N-Ras.mant-GMPPNP
Assay: Fluorescence anisotropy titration of PI3Kγ 144-1102 into N-Ras.mant-GMPPNP
Format: binding
Details: mutants in the 144-1102 construct, FIG. 2A
Description: Mant-nucleotides were synthesised as described previously (Jameson and Eccleston, 1997). N-Ras and H-Ras mutants were loaded with mant-GMPPNP as in (Moore et al., 1993), gel filtered into running buffer (20 mM Tris pH 7.5, 2 mM MgCl2, 1 mM DTT), and frozen at −80° C. The concentration of Ras.mant-GMPPNP was determined by measuring the absorbance of the mant group at […] with ε=5700 M^−1 cm^−1 (Hiratsuka, 1983). For binding assays, the 144-1102 human PI3Kγ was titrated into a 1 μM solution of fill length, unmodified N-Ras.mant-GMPPNP. Data were collected with SLM 8000 S and ISS PC1 spectrofluorimeters, set up in the T-format and L-format, respectively, with prism polarizers. All measurements were taken at 20° C. with a λex of 366 nm. Both emission PMTs were fitted with 399 nm cutoff filters. Five measurements of each data point were obtained and averaged. Data were fitted to the binding equation.

T1 sequence (P01111 whole entry): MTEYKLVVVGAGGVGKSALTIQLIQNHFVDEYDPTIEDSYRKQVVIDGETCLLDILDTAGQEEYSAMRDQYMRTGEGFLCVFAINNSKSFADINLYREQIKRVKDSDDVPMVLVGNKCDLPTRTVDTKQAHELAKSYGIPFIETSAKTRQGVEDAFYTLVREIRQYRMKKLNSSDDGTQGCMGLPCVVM

Row | Molecule | effect of PI3Kγ RBD mutation on binding to Ras
1 | B1 | tighter-binding
2 | B2 | eliminate binding
3 | B3 | probably increases the Kd
4 | B4 | eliminate binding
5 | B5 | eliminate binding

Target: N-Ras.GDP (Homo sapiens, UniProt P01111)
Assay: Binding of PI3Kγ constructs to N-Ras.GDP
Details: not given

Chain of N-Ras.GDP (P01111 whole entry): as above

Row | Molecule | binding to N-Ras.GDP
6 | B1 | Neither the wild-type protein, the pseudo wild-type (V327A, see methods), nor the V223K mutant exhibit detectable binding

Source: patent publication US20040018957A1, “Crystal structure of a Ras-P13K complex” (priority 2000, published 2004)
